Measurements: the Immune Epitope Database (IEDB)

Key:
HLA-A*02:01 [1] = experiment: IEDB peptide-MHC binding, cellular MHC/competitive/fluorescence; ≥ and ≤ were set here for values at or beyond the usual limits of such assays
HLA-A*02:02 = experiment: as above
HLA-A*68:02 [2] = experiment: as above
HLA-A*02:06 = experiment: as above
HLA-A*02:03 = experiment: IEDB peptide-MHC binding, purified MHC/competitive/radioactivity; ≥ and ≤ were set here for values at or beyond the usual limits of such assays
HLA-A*68:02 [3] = experiment: as above
HLA-A*02:01 [4] = experiment: as above; settings: source organism: Vaccinia virus WR
[5] = source organism: Vaccinia virus WR
[6] = source organism: Influenza A virus

Row | Sequence | IC50 (HLA-A*02:01 [1]; [5]) | IC50 (HLA-A*02:02; [5]) | IC50 (HLA-A*68:02 [2]; [5]) | IC50 (HLA-A*02:06; [5]) | IC50 (HLA-A*02:03; [5]) | IC50 (HLA-A*02:01 [1]; [6]) | IC50 (HLA-A*02:02; [6]) | IC50 (HLA-A*68:02 [2]; [6]) | IC50 (HLA-A*02:06; [6]) | IC50 (HLA-A*02:03; [6]) | IC50 (HLA-A*68:02 [3]; [5]) | IC50 (HLA-A*02:01 [4]) | IC50 (HLA-A*68:02 [3]; [6])
1 | VIRNEVNDT | ≥ 70 µM | 19.9 µM | 28.3 µM | ≥ 70 µM | 0.82 µM |  |  |  |  |  |  |  | 
2 | RAMAWTVV |  |  |  |  |  | 7.6 µM | 8.18 µM | ≥ 70 µM | 7.78 µM | 2.42 µM |  |  | 
3 | WIKNLETYT | 49.5 µM | 18.3 µM | ≥ 70 µM | 8.2 µM | 0.637 µM |  |  |  |  |  |  |  | 
4 | SLETVKMGA | 26.1 µM | 11.2 µM | ≥ 70 µM | 23.4 µM | 0.547 µM |  |  |  |  |  |  |  | 
5 | SMYTRLRQDT | 32.9 µM | 6.56 µM | ≥ 70 µM | 42 µM | 1.14 µM |  |  |  |  |  |  |  | 
6 | ELTSNCTRTT | 15.2 µM | 14.6 µM | 5.04 µM | 5.72 µM | 1.47 µM |  |  |  |  |  |  |  | 
7 | FISYNRHNDT | 36.3 µM | 6.84 µM |  | 11.2 µM | 4.93 µM |  |  |  |  |  | 2.28 µM |  | 
8 | STKADAVVA | 29.3 µM | 8.19 µM |  | 16.2 µM | 4.95 µM |  |  |  |  |  | 0.82 µM |  | 
9 | SMTSDSKSI | 34.8 µM | 8.35 µM | 8.09 µM | 56.1 µM | 2.3 µM |  |  |  |  |  |  |  | 
10 | EIKAEMQLKI | 27.5 µM | 16.9 µM | 5.12 µM | 14.3 µM | 4.76 µM |  |  |  |  |  |  |  | 
11 | FLKVPAQNA |  |  |  |  |  | 11.3 µM | 6.66 µM | 29 µM | ≥ 70 µM | 0.838 µM |  |  | 
12 | ILSEKRKDTI | ≥ 70 µM | 44 µM | ≥ 70 µM | ≥ 70 µM | 0.541 µM |  |  |  |  |  |  |  | 
13 | LANERYRSA | 49.1 µM | 31.3 µM | ≥ 70 µM | ≥ 70 µM | 0.554 µM |  |  |  |  |  |  |  | 
14 | AIRGQYSGFV |  |  |  |  |  | 12.9 µM | 6.28 µM | 18.4 µM | 42.8 µM | 0.092 µM |  |  | 
15 | AAAKTPVIVV | 44.3 µM | 8.04 µM | 5.25 µM | 13.4 µM | 1.52 µM |  |  |  |  |  |  |  | 
16 | RASAGQISV |  |  |  |  |  | 19.6 µM | 38.8 µM | 8.55 µM | 11.5 µM | 4.96 µM |  |  | 
17 | NMWREILSNT |  | 6.07 µM | 63.2 µM | 12 µM | 0.056 µM |  |  |  |  |  |  | 0.997 µM | 
18 | RVNHAKYMVT | 39 µM | 33.6 µM |  | 9.34 µM | 1.05 µM |  |  |  |  |  | 0.544 µM |  | 
19 | HANNSTDTV |  |  |  |  |  | 24 µM | 8.32 µM |  | 55 µM | 4.32 µM |  |  | 0.168 µM
20 | YVSSSYKDI | 31.2 µM | 5.04 µM |  | 16.6 µM | 1.2 µM |  |  |  |  |  | 2.63 µM |  | 
21 | SVNASKTINA | 19.3 µM | 17.3 µM |  | 28.7 µM | 0.731 µM |  |  |  |  |  | 0.629 µM |  | 
22 | TVEFDRDKVV | 30.9 µM | 16.2 µM |  | 30.8 µM | 1.59 µM |  |  |  |  |  | 2.63 µM |  | 
23 | EIRGVLPEET | 30.5 µM | 9.6 µM |  | 20.1 µM | 4.87 µM |  |  |  |  |  | 4.54 µM |  | 
24 | NISFKSINKV | 14.5 µM | 20.3 µM |  | 11.7 µM | 1.53 µM |  |  |  |  |  | 2.03 µM |  | 
25 | NTKSDNIINI | ≥ 70 µM | 30.8 µM |  | ≥ 70 µM | 1.08 µM |  |  |  |  |  | 0.101 µM |  | 
26 | NTLISSDGA |  | 7.41 µM | 25.4 µM | 49.3 µM | 3.57 µM |  |  |  |  |  |  |  | 
27 | RTEIIRMMESA |  |  |  |  |  | ≥ 70 µM | 8.29 µM |  | ≥ 70 µM | 4.47 µM |  |  | 4.32 µM
